1 substance from PMC10821397, “A New Approach for Preparing Stable High-Concentration Peptide Nanoparticle Formulations” (Pharmaceuticals, 2023) can be followed below.

What all share (type): physicochemical
Series [1] is described as follows: Scale-up nanosuspension, particle size by dynamic light scattering. The note with it: for % Pd: normalized polydispersity, scale-up; for % Pd / Average Radius: 100 mg/mL, DLS; for Average Radius: scale-up batch, average of 10 acquisitions, 25 °C, ± SD. As for the experimental part:
A 4 mL clear glass vial was used as a scale-up container. […] The vial was then placed on a Resodyn LabRAM II Resonant Acoustic mixer and milled at 50 G acceleration for 2 h. The resulting nanosuspension was recovered by using a syringe equipped with an 18 G needle.
(§1) After milling, a 5 μL aliquot of the nanosuspension sample was taken and diluted in 995 μL of D.I. water for analysis using a Wyatt DynaProTM Plate Reader II (Waters Corporation, Santa Barbara, CA, USA) dynamic light scattering instrument. A 30 μL aliquot of the diluted suspension was dispensed into a Corning® low-volume black polystyrene 384-well plate for analysis. The particle size of each sample was reported as an average of 10 acquisitions with an acquisition time of 5 s at 25 °C. Autocorrelation curves were fitted using either the cumulants or regularization method, and the average particle radius and diameters D50 and D90 were obtained and reported along with their standard deviations. The normalized polydispersity (%Pd) was calculated as the polydispersity divided by the estimated hydrodynamic radius from the cumulants fit of the autocorrelation function multiplied by 100.

Series [2] is described as follows: Particle size of nanosuspensions on storage (dynamic light scattering). The settings on record: DLS. On the procedure:
as §1

The nature of series [3]: Physical stability (monomer content) by size-exclusion chromatography. The settings on record: both formulations (PVP K29-32/SDS, HPC-SL/SDS), 28 days, 4 °C, RT and 37 °C; no higher-order oligomers. On the procedure:
An Agilent 1290 Infinity II (Agilent Technologies, Santa Clara, CA, USA) was used for chromatographic analysis. Data were acquired and processed using Empower 3 software (Waters, Milford, MA, USA). For all three peptides (GNE-A, cyclosporin A, and insulin), separations were performed in an Xbridge BEH125 SEC column ([…], 7.8 × 150 mm) for physical stability analysis. Isocratic method was applied in which 80% of the 5 mM phosphate buffer at pH 7 in acetonitrile was used as the mobile phase. The injection volume was 8 μL and the column temperature was 30 °C.
(In general: In gel filtration, larger molecules generally elute earlier.)

Series [4] is described as follows: Nanomilling screen (resonant acoustic milling), particle size by dynamic light scattering. The settings on record: DLS; for Average Radius: nanomilling screen, milled at 100 mg/mL in water, 50 G, 2 h, average of 10 acquisitions, 25 °C, ± SD; for % Pd: normalized polydispersity, screen, 100 mg/mL. As for the experimental part: A UV-Star clear, flat-bottom 96-well plate was used as a high-throughput mixing container, as described previously. […] Each well plate was sealed with a Thermo Fisher Scientific ALPS 50 V Manual Heat Sealer (Thermo Fisher Scientific Inc., Waltham, MA, USA). Each sealed well plate was then placed on a Resodyn LabRAM II Resonant Acoustic mixer (Resodyn Acoustic Mixers, Butte, MT, USA) and milled at 50 G acceleration for 2 h.
as §1

Setting [5] is: 25% HPC-SL, 1% SDS (wt% to peptide).
Where [6] appears, read: 25% PVP K29-32, 1% SDS (wt% to peptide).
The mark [7] stands for this setting: 25% Pluronic F127 (wt% to peptide).

In the case of “Insulin (recombinant human) [Insulin Monomer]”, in series [1] (both formulations (HPC-SL/SDS and PVP K29-32/SDS), screen and scale-up batch), the “average radius of the nanoparticles” value is listed as 110–130 nm. Also, the “% Pd” value in series [1] (setting [5]) is listed as 33.6%; in series [1] (setting [6]) it was 19.9%; in series [4] (setting [7]), 14.6%; in series [4] (25% Tween 80 (wt% to peptide)), “Multimodal”. Besides, the “Average Radius” value worked out at 135 ± 14 nm in series [1] (setting [5]); 121 ± 5 nm in series [1] (setting [6]); 130 ± 4 nm in series [4] (setting [5]); 112 ± 2 nm in series [4] (setting [6]); 419 ± 24 nm in series [4] (setting [7]); 903 ± 124 nm in series [4] (25% Tween 80 (wt% to peptide)). In addition, the “particle size on storage” value was “some particle growth” in series [2] (insulin nanosuspension with HPC-SL/SDS, 4 °C and room temperature, up to 1 month); “significant aggregation” in series [2] (insulin nanosuspension with HPC-SL/SDS, 37 °C, up to 1 month); “No significant particle size growth” in series [2] (insulin nanosuspension with PVP K29-32/SDS, 28 days at 4 °C or room temperature); “remained in the accepted nano-scale range” in series [2] (insulin nanosuspension with PVP K29-32/SDS, up to a month at 37 °C). The “insulin monomer concentration (SEC)” value in series [3] is listed as “remains quantitative”.
